“And” between values parts separate entries of the source, which are not always exact repeats. Equal values may be shown once. Read-outs that look alike come from different tables or passages of the source.
Assays:
[1] = Maximum tolerated dose of MORAb-202 in CD-1 mice; assay type: in vivo, mouse
Experimental: Body weight was measured prior to dose on the dosing day, 24 hours post dose, and three times a week thereafter. […] Two weeks after dosing, the terminal body weight was measured and recorded. Euthanized mice at the end of the study (and if any mouse euthanized or found dead during the study) were processed for necropsy. Organs were examined for signs of tissue damage.

[2] = tested on: OVCAR3 cells; assay: Crystal Violet cytotoxicity assay (Examples 1 and 2), OVCAR3; settings: Example 1
Experimental: (§1) Typically, test reagents were serial diluted 1:4 in 2 mL deep-well dilution plates, starting at 1 μM (10 dilutions total). 100 μL of diluted samples were added to the cell plates (starting concentration of test samples at 500 nM). […] Medium was discarded, plates were washed once with 200 μL DPBS, stained with 50 μL of 0.2% Crystal Violet solution at room temperature for 15 min, and then washed extensively with tap water. Plates were air-dried, and Crystal Violet was dissolved with 200 μL of 1% SDS solution. Plates were read at 570 nm. Data was analyzed using GraphPad Prism 6. Assays were performed using a seeding density of 1,000 cells per well and compound exposure was for a total of 5 days. When shorter-term exposure was desired, medium containing cytotoxic agents was removed after 4 hours and replaced with fresh growth medium prior to 5-day incubation. For OVCAR3, CaOV3, and NCI-H2110, cells were seeded at 3,000 cells/well and incubated for 5 days with ADC.
(§2) SJSA-1 cells are a human osteosarcoma tumor cell line that are negative for folate receptor alpha.
Typically, test reagents were serially-diluted 1:4 in 2 mL deep-well dilution plates, starting at 1 μM (10 dilutions total). 100 μL of diluted samples were added to the cell plates (starting concentration of test samples at 100 nM). […] Plates were read at 570 nm. Data was analyzed using GraphPad Prism 6.

[3] = tested on: HL-60 cells; assay: Bystander killing assay, Nuclight Red HL-60; assay type: cell-based, human
Experimental: The day before study commencement, Nuclight™ Green (NLG) IGROV1 cells were seeded at 5,000 cells/well into 96-well round bottom plates, followed by centrifugation at 1,000 rpm for 3 min at room temperature to ensure formation of a cell pellet. The plate was placed in the vessel of an Incucyte Zoom® (EssenBio science) and incubated at 37° C./5% CO2 overnight. The program was set to collect images of cell growth, and to determine total numbers of nuclear green-stained and nuclear red-stained cells as well as phase-confluency of the cells every two hours. […] 50 μL of cytotoxin solution was added to the NLG-IGROV1 cells and incubated for 30 min. During the incubation period, Nuclight™ Red (NLR) HL-60 (FR^neg) cells were diluted to 2×10^5, 1×10^5 or 5×10^4 cell/mL with fresh media. 50 μL of the NLR-HL60 cell suspension or medium alone was added to the NLG-IGROV1 wells, followed by centrifugation at 1,000 rpm for 3 min at room temperature to ensure re-formation of the cell pellet. The plate was placed back into the vessel of Incucyte Zoom (EssenBio science) and incubated at 37° C./5% CO2 for up to 5 days. Relative cell growth of NLG-IGROV1 was determined by comparison to no ADC or free drug alone added samples using green cell counts. Relative cell growth of HL60 was done similarly, except that red cell count was determined. Determination of IC50 values for both NLG-IGROV1 and NLR-HL-60 was determined using Prism (GraphPad).
In order to assess bystander killing activity, an assay was set up using two labeled cell lines. […] Cytotoxicity was monitored by an Incucyte Zoom® cell imager.

[4] = tested on: SJSA-1 cells; assay: Crystal Violet cytotoxicity assay (Examples 1 and 2), SJSA-1
Experimental: as §1
In vitro potency of prepared ADCs was assessed using a Crystal Violet assay as detailed in section 1.4.1.
as §2
Typically, test reagents were serially-diluted 1:4 in 2 mL deep-well dilution plates, starting at 1 μM (10 dilutions total). 100 μL of diluted samples were added to the cell plates (starting concentration of test samples at 100 nM). […] Medium was discarded, plates were washed once with 200 μL DPBS, stained with 50 μL of 0.2% Crystal Violet solution at room temperature for 15 min, and then washed extensively with tap water. Plates were air-dried, and Crystal Violet was dissolved with 200 μL of 1% SDS solution. Plates were read at 570 nm. Data was analyzed using GraphPad Prism 6.

[5] = tested on: BT-474 cells; assay: Crystal Violet cytotoxicity assay (Example 4), BT-474; assay type: cell-based, human
Experimental: (§3) Test reagents were serial diluted 1:3 in 2 mL deep-well dilution plates, starting at 200 nM (10 dilutions total). […] Medium was then discarded. […] Plates were read at 570 nm. Data was analyzed using GraphPad Prism 6.

[6] = tested on: ZR-75 cells; assay: Crystal Violet cytotoxicity assay (Example 4), ZR-75; assay type: cell-based, human
Experimental: as §3

[7] = tested on: Endo-12961 endometrial cancer patient-derived xenograft; assay: Endometrial cancer PDx model Endo-12961
Experimental: Tumor fragments were implanted subcutaneously into the left flank of 40 NMRI nu/nu female mice, and tumor volume was monitored. Mice with a tumor volume of 100-160 mm^3 were randomized into one of four groups (Groups A-D, Table 39). […] Each group consisted of 8 animals. The day of randomization was designated as Day 0 of the experiment.
Tumor growth was evaluated by the measurement of two perpendicular diameters twice weekly, and tumor volume (TV), relative tumor volume (RTV) and treated/control (T/C) values were calculated. Body weight was also evaluated twice weekly as a parameter for toxicity, with the calculation of the body weight per group and body weight changes (BWC) relative to the start of treatment. Animals were sacrificed when the individual tumor volume exceeded 1 cm^3, or at the end of the study.

MORAb-003-maleimido-PEG2-Val-Cit-pAB-eribulin [MORAb-202]
Body weight of individual mice ([1]; 40 mg/kg single bolus i.v., CD-1 mice, day 2 post Rx): 23.60 g and 24.60 g and 21.80 g | Body weight, group mean ([1]; 40 mg/kg single bolus i.v., CD-1 mice, day 2 post injections): 23.3 g | Body weight of individual mice ([1]; 40 mg/kg single bolus i.v., CD-1 mice, day 4 post Rx): 24.40 g and 24.10 g and 22.70 g | Body weight, group mean ([1]; 40 mg/kg single bolus i.v., CD-1 mice, day 4 post injections): 23.7 g | Body weight of individual mice ([1]; 40 mg/kg single bolus i.v., CD-1 mice, day 7 post Rx): 25.10 g and 25.50 g and 23.40 g | Body weight, group mean ([1]; 40 mg/kg single bolus i.v., CD-1 mice, day 7 post injections): 24.7 g | Body weight of individual mice ([1]; 40 mg/kg single bolus i.v., CD-1 mice, day 9 post Rx): 25.80 g and 25.20 g and 23.70 g | Body weight, group mean ([1]; 40 mg/kg single bolus i.v., CD-1 mice, day 9 post injections): 24.9 g | Body weight of individual mice ([1]; 40 mg/kg single bolus i.v., CD-1 mice, day 11 post Rx): 25.30 g and 25.00 g and 23.80 g | Body weight, group mean ([1]; 40 mg/kg single bolus i.v., CD-1 mice, day 11 post injections): 24.7 g | Body weight of individual mice ([1]; 40 mg/kg single bolus i.v., CD-1 mice, day 14 post Rx): 25.70 g and 25.30 g and 26.30 g | Body weight, group mean ([1]; 40 mg/kg single bolus i.v., CD-1 mice, day 14 post injections): 25.8 g | Body weight of individual mice ([1]; 80 mg/kg single bolus i.v., CD-1 mice, day 0 post Rx): 21.80 g and 26.50 g and 25.80 g | Body weight, group mean ([1]; 80 mg/kg single bolus i.v., CD-1 mice, day 0 post injections): 24.7 g | Body weight of individual mice ([1]; 80 mg/kg single bolus i.v., CD-1 mice, day 1 post Rx): 23.10 g and 27.80 g (2×) | Body weight, group mean ([1]; 80 mg/kg single bolus i.v., CD-1 mice, day 1 post injections): 26.2 g | Body weight of individual mice ([1]; 80 mg/kg single bolus i.v., CD-1 mice, day 2 post Rx): 23.30 g and 28.30 g (2×) | Body weight, group mean ([1]; 80 mg/kg single bolus i.v., CD-1 mice, day 2 post injections): 26.6 g | Body weight of individual mice ([1]; 80 mg/kg single bolus i.v., CD-1 mice, day 4 post Rx): 23.50 g and 29.50 g and 28.60 g | Body weight, group mean ([1]; 80 mg/kg single bolus i.v., CD-1 mice, day 4 post injections): 27.2 g | Body weight of individual mice ([1]; 80 mg/kg single bolus i.v., CD-1 mice, day 7 post Rx): 23.30 g and 30.40 g and 30.10 g | Body weight, group mean ([1]; 80 mg/kg single bolus i.v., CD-1 mice, day 7 post injections): 27.9 g | Body weight of individual mice ([1]; 80 mg/kg single bolus i.v., CD-1 mice, day 9 post Rx): 23.60 g and 31.00 g and 30.20 g | Body weight, group mean ([1]; 80 mg/kg single bolus i.v., CD-1 mice, day 9 post injections): 28.3 g | Body weight of individual mice ([1]; 80 mg/kg single bolus i.v., CD-1 mice, day 11 post Rx): 23.10 g and 29.10 g and 29.40 g | Body weight, group mean ([1]; 80 mg/kg single bolus i.v., CD-1 mice, day 11 post injections): 27.2 g | Body weight of individual mice ([1]; 80 mg/kg single bolus i.v., CD-1 mice, day 14 post Rx): 21.70 g and 28.40 g and 28.90 g | Body weight, group mean ([1]; 80 mg/kg single bolus i.v., CD-1 mice, day 14 post injections): 26.3 g | toxicity, in words ([1]; doses up to 80 mg/kg via bolus intravenous administration): no toxicity | maximum tolerated dose (MTD) ([1]; single bolus intravenous dose, CD-1 mice): above 80 mg/kg | body weight loss compared with PBS control, in words ([1]; single i.v. dose 10, 20, 40 or 80 mg/kg): No significant body weight loss | cytotoxicity on OVCAR3 cells, in words [2]: potent cytotoxicity | EC50 ([3]; HL-60 (FR-negative) cells alone, read-out: EC50, HL-60): 0.0397 µM | EC50 ([3]; HL-60 co-cultured with IGROV1, read-out: EC50, HL-60 (co-culture with IGROV-1)): 0.00024 µM | killing of FR-negative SJSA-1 cells (off-target), in words ([4]; Example 1 screening): little killing | IC50 ([4]; read-out: Cytotoxicity (IC50) SJSA-1, SJSA-1 cells, mean of replicate experiments, where performed): > 0.1 µM | EC50 ([4]; read-out: cytotoxicity (EC50) on SJSA-1 cells, Example 2): > 0.1 µM | cytotoxicity on BT-474 cells, in words [5]: little killing | cytotoxicity on ZR-75 cells, in words [6]: little killing | tumor re-growth during the study, in words ([7]; MORAb-202 5 mg/kg or eribulin 3.2 mg/kg): no significant tumor re-growth | anti-tumor activity, in words ([7]; MORAb-202 5 mg/kg or eribulin 3.2 mg/kg, single i.v. dose): significant anti-tumor activity | effect on body weight, in words ([7]; first week post-treatment): no body weight loss

From patent US20230398228A1, “ERIBULIN-BASED ANTIBODY-DRUG CONJUGATES AND METHODS OF USE” (EISAI R&D MANAGEMENT CO., LTD., priority 2016, published 2023)
